Laboratory results taken from patent publication US20080113421A1, “Stabilizing proteins against denaturation and inactivation by charged detergents using chemical modifications, including modifications that increase net charge” (President and Fellows of Harvard College, priority 2006, published 2008).

Tests used:
Surface area calculation = assay: Surface area calculation
Description: A surface area calculation was also performed to determine the change in surface area between the conversion of BCA to BCA-Ac18 and BCA to BCA-Hex18. It was calculated that the reaction with acetic anhydride changed the surface area of BCA by 400 Å^2 and the reaction with hexanoic anhydride changed the surface area of BCA by 1180 Å^2. Since this change is a factor of 2.9, it can be concluded that this estimate that each modification with hexanoic anhydride adds three times the amount of surface area than modification with acetic anhydride is justified.

BCA = biological target: T1, BCA (Bos taurus, UniProt P00921); assay: Effect of DNSA present in the denaturing solution on rate of SDS denaturation; set-up: species or system bovine; settings: DNSA present with the protein in the denaturing SDS solution
T1 construct: purchased Sigma-Aldrich (St. Louis, Mo.)
Description: The kinetics of unfolding were determined as follows. The rates of denaturation of BCA and BCA-Ac18 were measured by incubating the protein (200 nM) in solutions of different concentrations of SDS. Immediately prior to the measurement, an aliquot of solution containing protein and SDS was mixed with a solution containing DNSA and the same concentration of SDS; this protocol minimized the possibility that DNSA might stabilize the native conformation of the protein, and influence the rate of its denaturation. When BCA was denatured in concentrations of SDS of 4 mM and higher, DNSA was added to the original, denaturing solution because the rate of denaturation was too fast to follow with manual mixing of aliquots of protein and DNSA. It was observed that DNSA, when present with the protein in the denaturing solution, reduced the rates of denaturation by factors of about 2-10.

T1 sequence (P00921 whole entry): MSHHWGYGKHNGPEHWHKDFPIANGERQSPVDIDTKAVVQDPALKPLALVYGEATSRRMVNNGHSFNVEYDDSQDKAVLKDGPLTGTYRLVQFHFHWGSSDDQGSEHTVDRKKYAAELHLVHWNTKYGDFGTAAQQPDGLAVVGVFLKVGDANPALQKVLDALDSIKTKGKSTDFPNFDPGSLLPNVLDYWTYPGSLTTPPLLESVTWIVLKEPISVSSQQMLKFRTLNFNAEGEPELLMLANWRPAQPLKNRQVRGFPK

## BCA-Hex18: BCA with all 18 lysines modified with hexanoic anhydride
Surface area calculation
  ratio of surface area change, hexanoic vs acetic anhydride: 2.9

## CN(C)c1cccc2c(S(N)(=O)=O)cccc12 [DNSA, Dansyl amide]
BCA
  factor by which rates of denaturation are reduced: 2-10
